Results reported in patent publication US20120304318A1, “CANCER DIAGNOSIS AND TREATMENT” (CAMBRIDGE ENTERPRISE LTD, priority 2009, published 2012).

How the values were obtained:
EJ28 cells [1] = assay: Apoptosis of stably transfected EJ28 cells with or without Mitomycin C (caspase activity); type: cell-based; details: for endogenous apoptosis: stable overexpression in EJ28, no drug; for apoptosis induced by Mitomycin C: stable overexpression in EJ28, 1 μg/ml Mitomycin C, caspase activity
Procedure: Two control EJ28 cells, two OMD stably-transfected EJ28 cells, and a PRELP stably-transfected EJ28 cells are treated with 1 μg/ml of Mitomycin C. Also, as a positive control, EJ28 cells are treated with higher concentration 5 μg/ml of Mitomycin C as a positive control. Then, the ratios of apoptotic cells were determined by measuring caspase activities.
(§1) OMD and PRELP were subcloned into pIRES2-EGFP (Clontech). A bladder cancer cell line, EJ28, was stably transfected with these plasmids by selection with G418. Two independent clones were derived for each plasmid (except MT-Prelp, where it was only possible to derive one). Then, the properties of these cells were examined. […] These cells include apoptotic ones. This contrasted with control cells, which were flat and cuboidal. […] Two independent clones of OMD and EGFP expressing EJ28 cells, two independent control EJ28 clones expressing EGFP, and a PRELP with myc tag and EGFP expressing EJ28 cells were treated with 1 μg/ml Mitomycin C. Also, EGFP expressing EJ28 cells were treated with higher concentration of Mitomycin C (5 μg/ml) as a positive control.

[2] = tested on: EJ28 bladder cancer cells; assay: EJ28 xenograft in nude mice, tumour volume; type: in vivo, MF1 nude mice; details: day 18
Procedure: To evaluate in vivo effect of OMD or PRELP activation in cancer cells, xenograft experiments were performed using nude mice. EJ28 bladder cancer cells expressing OMD or EJ28 control cells were injected into the mice and cancer development was monitored for three weeks. […] This observation confirms the utility of OMD/PRELP based cancer treatment.
FIG. 15 Effect of xenograft of EJ28 cells overexpressing OMD protein. EJ28 bladder cancer cells or EJ28 cells overexpressing OMD were inoculated into nude mice and then cancer development was monitored for three weeks. The result at 18 days is shown.
Six- to eight-week-old male MF1 nude mice were obtained from Royal Free Hospital London UK. Tumors were induced by inoculation of 5×10^6 EJ28 cancer bladder cells s.c. on the back. EJ28 tumour-bearing MF-1 mice (n=5) were injected with cells subcloned with stably transfected with OMD-myc tag in pIRES2-EGFP vector, using Lipofectamine 2000 (Invitrogen). […] Tumour dimensions were measured continuously using a caliper and tumour volumes were calculated using the equation: volume=(π/6)×a×b×c, where a, b, and c represent three orthogonal axes of the tumour. Animals were assessed for tumour growth over 25-day period.
The biological activity of OMD on EJ28 tumour-bearing mice was determined by measuring changes in tumour volume.

[3] = tested on: EJ28 bladder cancer cell line; assay: Proliferation and cell cycle of stably transfected EJ28 cells (cell counting, BrdU incorporation, FACS); type: cell-based
Source text: Also disclosed herein are novel methods for treatment of cancer based on activation of OMD and/or PRELP. […] If so, it can be inferred that the activation of OMD or/and PRELP would inhibit tumourigenesis and provide novel treatment of cancer. […] To this end, OMD or PRELP was stably over-expressed in the bladder cancer cell line EJ28.
as §1

EJ28 cells [4] = assay: Anchorage-independent growth in soft agar; type: cell-based; details: stable overexpression in EJ28; 2 weeks; relative to control cells
Procedure: FIG. 14. OMD abolishes, and PRELP inhibits, anchorage-independent growth of EJ28 cells. Cells were seeded in DMEM+0.3% agar, overlying a lower layer of DMEM+0.6% agar. 3000 cells were seeded into wells of a 6-well dish in triplicate. Plates were incubated for 2 weeks, and colonies were counted. Error bars are standard deviations. Statistical analysis consisted of one-way ANOVA, with post-hoc Newman-Keuls testing. Letter groupings, “a”, “b” etc, refer to the results of the Newman-Keuls test.
OMD and PRELP also affect the anchorage-independence, a hallmark of cancer cells. Anchorage-independence was measured by seeding cells in soft agar, incubating them for 2 weeks and counting the number of resultant colonies.

HEK 293 cells = assay: Mitomycin C induced apoptosis in normal cells (annexin and caspase activity assays); type: cell-based; details: stable overexpression in HEK 293; 1 ug/ml mitomycin C, 24 h
Procedure: FIG. 10. OMD expression protects normal cells from apoptosis, whilst PRELP expression has no effect. HEK 293 cells stably transfected with either CAT (a control), OMD or PRELP, and assayed to measure the level of apoptosis they underwent in response to treatment with 1 ug/ml mitomycin C. (a) Annexin assay. Cells were treated one dose of the drug, and 24 hours later, they were trypsinized, incubated in the presence of Alexafluor-647 conjugated annexin and propidium iodide, and examined by flow cytometry. The annexin-positive, PI-negative subpopulation, comprising live cells that were in the process of undergoing apoptosis, was identified. (b) Caspase activity assay. One dose of the drug was administered, and 24 h later, cells were incubated in the presence of a substrate that, upon cleavage by caspases, was converted into a luminescent product. Luminescence was quantified and taken to be proportional to caspase activity. In both (a) and (b), error bars refer to standard deviations, and statistical analysis consisted of t-tests.

[5] = stable overexpression in EJ28 vs control cells

For `CO[C@@]12[C@H](COC(N)=O)C3=C(C(=O)C(C)=C(N)C3=O)N1C[C@@H]1N[C@@H]12` [Mitomycin C, reference compound], the cell death (EJ28 cells [1]; EGFP expressing EJ28 cells, 5 μg/ml Mitomycin C, positive control) was “massive cell death”.

B1: OMD-myc tag: OMD with myc tag in pIRES2-EGFP vector, stably transfected into EJ28 cells (protein, UniProt Q99983 21-421, looked up)
Osteomodulin: QYETYQWDEDYDQEPDDDYQTGFPFRQNVDYGVPFHQYTLGCVSECFCPTNFPSSMYCDNRKLKTIPNIPMHIQQLYLQFNEIEAVTANSFINATHLKEINLSHNKIKSQKIDYGVFAKLPNLLQLHLEHNNLEEFPFPLPKSLERLLLGYNEISKLQTNAMDGLVNLTMLDLCYNYLHDSLLKDKIFAKMEKLMQLNLCSNRLESMPPGLPSSLMYLSLENNSISSIPEKYFDKLPKLHTLRMSHNKLQDIPYNIFNLPNIVELSVGHNKLKQAFYIPRNLEHLYLQNNEIEKMNLTVMCPSIDPLHYHHLTYIRVDQNKLKEPISSYIFFCFPHIHTIYYGEQRSTNGQTIQLKTQVFRRFPDDDDESEDHDDPDNAHESPEQEGAEGHFDLHYYENQE
modifications: myc tag
notes: OMD with myc tag in pIRES2-EGFP vector, stably transfected into EJ28 cells
For B1, the tumour size ([2]; EJ28 cells stably transfected with OMD-myc tag inoculated s.c. in MF-1 nude mice, control 37.91±16.57) was 1.60±1.0 mm^3 and the tumour growth ([2]; OMD-myc tag transfected EJ28 cell line vs vector control) was “completely inhibited”.

B2: PRELP: human PRELP protein (SEQ ID NO:2), stably overexpressed in cells (myc tagged in EJ28) (protein)
chain: QPTRRPRPGTGPGRRPRPRPRPTPSFPQPDEPAEPTDLPPPLPPGPPSIFPDCPRECYCPPDFPSALYCDSRNLRKVPVIPPRIHYLYLQNNFITELPVESFQNATGLRWINLDNNRIRKIDQRVLEKLPGLVFLYMEKNQLEEVPSALPRNLEQLRLSQNHISRIPPGVFSKLENLLLLDLQHNRLSDGVFKPDTFHGLKNLMQLNLAHNILRKMPPRVPTAIHQLYLDSNKIETIPNGYFKSFPNLAFIRLNYNKLTDRGLPKNSFNISNLLVLHLSHNRISSVPAINNRLEHLYLNNNSIEKINGTQICPNDLVAFHDFSSDLENVPHLRYLRLDGNYLKPPIPLDLMMCFRLLQSVVI
With B2 the “cell cycle arrest / inhibition” value ([3]; stable overexpression in EJ28) was “cell cycle inhibition was not observed”, the “proliferation (cell-counting assay)” value [3, 5] was “inhibit proliferation” and the “anchorage-independent growth / colony-forming ability in soft agar” value (EJ28 cells [4]) was “a third”. For the same molecule, the “Mitomycin-C mediated apoptosis of normal cells” value (HEK 293 cells) was “had no effect”, the endogenous apoptosis (EJ28 cells [1]) was “higher rates of endogenous apoptosis” and the “apoptosis induced by Mitomycin C” value (EJ28 cells [1]) was “even higher rates of apoptosis”.

B3: OMD: human osteomodulin protein (SEQ ID NO:1), stably overexpressed in cells from an expression plasmid (protein, listed as Homo sapiens)
chain: MGFLSPIYVIFFFFGVKVHCQYETYQWDEDYDQEPDDDYQTGFPFRQNVDYGVPFHQYTLGCVSECFCPTNFPSSMYCDNRKLKTIPNIPMHIQQLYLQFNEIEAVTANSFINATHLKEINLSHNKIKSQKIDYGVFAKLPNLLQLHLEHNNLEEFPFPLPKSLERLLLGYNEISKLQTNAMDGLVNLTMLDLCYNYLHDSLLKDKIFAKMEKLMQLNLCSNRLESMPPGLPSSLMYLSLENNSISSIPEKYFDKLPKLHTLRMSHNKLQDIPYNIFNLPNIVELSVGHNKLKQAFYIPRNLEHLYLQNNEIEKMNLTVMCPSIDPLHYHHLTYIRVDQNKLKEPISSYIFFCFPHIHTIYYGEQRSTNGQTIQLKTQVFRRFPDDDDESEDHDDPDNAHESPEQEGAEGHFDLHYYENQE
In the case of B3, the “cell cycle arrest / inhibition” value ([3]; stable overexpression in EJ28) is reported as “enhanced cell cycle arrest at G1 phase”, the “proportion of cells in S-phase (FACS analysis)” value ([3]; stable overexpression in EJ28) is reported as “lower proportion of cells in S-phase” and the BrdU incorporation [3, 5] is reported as “lower rate of BrdU incorporation”. For the same molecule, the “proliferation (cell-counting assay)” value [3, 5] was “proliferated more slowly than control cells”, the “anchorage-independent growth / colony-forming ability in soft agar” value (EJ28 cells [4]) was “absolutely abolished” and the “Mitomycin-C mediated apoptosis of normal cells” value (HEK 293 cells) was “protected normal cells”. The endogenous apoptosis (EJ28 cells [1]) was “increased cell death by apoptosis” and the “apoptosis induced by Mitomycin C” value (EJ28 cells [1]) was “markedly sensitized”.
